Source: article doi:10.1101/153403

How the values were obtained:
[1] = biological target: myostatin pro-domain of the HRV-3C cleaved pro-myostatin complex (from proMSTN-3C) (human); assay: SEC-MALS
[2] = biological target: mature myostatin growth factor dimer (from HRV-3C cleaved proMSTN-3C) (human) (UniProt O14793); assay: SEC-MALS

stoichiometry N (pro-domains per mature GF dimer) [1]: 2
stoichiometry N [2]: 2
Substance: mature myostatin growth factor dimer (from HRV-3C cleaved proMSTN-3C) (from UniProt O14793 267-375) (ligand)
